According to patent EP4578877A1 (Nanjing Leads Biolabs Co., Ltd., dated 2025):
Substitutions are numbered along the chain they refer to. Names may count otherwise. One block for each binder: values may come before it.

Tests used:
[1] = biological target: T1, human FAP protein expressed on 293T cells (293T-human FAP) (human, UniProt Q12884 1-760); assay: flow cytometry on 293T-human FAP cells
T1 sequence: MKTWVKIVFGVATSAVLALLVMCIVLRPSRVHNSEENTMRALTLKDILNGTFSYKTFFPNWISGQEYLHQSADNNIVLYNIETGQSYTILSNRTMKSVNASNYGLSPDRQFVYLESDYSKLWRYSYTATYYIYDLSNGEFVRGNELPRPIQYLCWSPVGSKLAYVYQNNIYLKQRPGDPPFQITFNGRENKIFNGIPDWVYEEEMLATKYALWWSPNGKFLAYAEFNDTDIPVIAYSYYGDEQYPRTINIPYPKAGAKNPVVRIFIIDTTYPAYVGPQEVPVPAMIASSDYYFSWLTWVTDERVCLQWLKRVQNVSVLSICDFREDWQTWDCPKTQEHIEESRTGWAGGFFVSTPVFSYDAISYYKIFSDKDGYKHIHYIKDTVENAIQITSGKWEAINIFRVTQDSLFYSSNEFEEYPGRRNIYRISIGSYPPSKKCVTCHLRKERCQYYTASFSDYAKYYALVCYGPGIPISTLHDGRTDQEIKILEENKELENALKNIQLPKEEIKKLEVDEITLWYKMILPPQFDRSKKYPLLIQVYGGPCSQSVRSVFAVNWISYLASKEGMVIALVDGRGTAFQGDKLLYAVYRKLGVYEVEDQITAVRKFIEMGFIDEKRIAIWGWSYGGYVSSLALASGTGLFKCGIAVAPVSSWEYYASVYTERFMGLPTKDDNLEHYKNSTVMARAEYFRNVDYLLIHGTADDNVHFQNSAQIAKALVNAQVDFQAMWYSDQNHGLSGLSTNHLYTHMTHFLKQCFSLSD

[2] = biological target: T2, cynomolgus FAP protein expressed on 293T cells (293T-cynomolgus FAP) (cynomolgus, UniProt Q12884 1-760 (human entry)); assay: flow cytometry on 293T-cynomolgus FAP cells
T2 sequence: T1 sequence with S29P, V261F, E417D

[3] = biological target: recombinant human FAP protein (Sino Biological, Cat# 10464-H07H) (human) (UniProt Q12884); assay: ELISA on immobilized human FAP; antibody stored at 40 °C for 0 weeks
[4] = biological target: recombinant human FAP protein (Sino Biological, Cat# 10464-H07H) (human) (UniProt Q12884); assay: ELISA on immobilized human FAP; antibody stored at 40 °C for 2 weeks, relative to 0 weeks
[5] = biological target: recombinant human FAP protein (Sino Biological, Cat# 10464-H07H) (human) (UniProt Q12884); assay: ELISA on immobilized human FAP; antibody stored at 40 °C for 4 weeks, relative to 0 weeks
[6] = biological target: T3, recombinant human FAP protein (Sino Biological, Cat# 10464-H07H) (human, UniProt Q12884 26-760); assay: ELISA, human FAP protein immobilized on plate
T3 construct: Bought protein
T3 sequence: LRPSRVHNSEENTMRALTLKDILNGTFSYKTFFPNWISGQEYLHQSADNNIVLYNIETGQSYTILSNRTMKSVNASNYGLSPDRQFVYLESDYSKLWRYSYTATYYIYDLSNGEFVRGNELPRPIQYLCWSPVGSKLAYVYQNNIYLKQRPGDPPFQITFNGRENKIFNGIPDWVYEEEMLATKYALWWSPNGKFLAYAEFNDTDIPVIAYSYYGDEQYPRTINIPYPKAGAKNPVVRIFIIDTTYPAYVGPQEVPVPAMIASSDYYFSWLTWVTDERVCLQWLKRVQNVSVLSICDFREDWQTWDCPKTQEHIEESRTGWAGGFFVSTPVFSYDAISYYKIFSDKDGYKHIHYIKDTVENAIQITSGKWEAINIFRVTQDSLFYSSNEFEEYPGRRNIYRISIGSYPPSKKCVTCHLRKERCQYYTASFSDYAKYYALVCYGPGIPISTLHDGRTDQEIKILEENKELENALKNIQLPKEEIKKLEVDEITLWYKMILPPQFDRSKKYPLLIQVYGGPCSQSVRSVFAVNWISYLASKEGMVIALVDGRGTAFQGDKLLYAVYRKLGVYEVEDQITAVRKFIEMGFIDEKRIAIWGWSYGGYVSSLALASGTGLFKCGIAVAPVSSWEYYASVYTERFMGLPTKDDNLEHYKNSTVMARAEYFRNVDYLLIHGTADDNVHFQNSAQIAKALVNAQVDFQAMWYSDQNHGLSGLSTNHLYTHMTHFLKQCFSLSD

binding result [1]: binds | binding result [2]: binds | ELISA Relative activity [3]: 100% | ELISA Relative activity [4]: 93.8% | ELISA Relative activity [5]: 89.9%
B1: humanized anti-FAP antibody huF19-LG (antibody, human IgG1, kappa, V domains shown)
VH: QVQLVQSGAEVKKPGASVKVSCKASGYTFTEYTIHWVRQATGQGLEWIGGINPNNGIPNYNQKFKGRATMTVGTSISTAYMELSSLRSEDTAVYFCARRRIAYGYDEGHAMDYWGQGTLVTVSS
VL: DIQMTQSPSSLSASVGDRVTITCKSSQSLLYSRNQKNYLAWFQQKPGKAPKLLIFWASTRESGVPSRFTGSGFGTDFTLTISSLQPEDFATYYCQQYFSYPLTFGQGTKLEIKR
notes: Full-length human IgG1/kappa; expressed in ExpiCHO-S

binding result [1]: binds | binding result [2]: binds | binding result [6]: binds
B2: sibrotuzumab (humanized reference anti-FAP antibody) (antibody, human IgG1, kappa, V domains shown)
VH: B1 VH with A24T, G26R, T41P, G44R, A68V, M70I, G73D, I76A, F95Y
VL: DIVMTQSPDSLAVSLGERATINCKSSQSLLYSRNQKNYLAWYQQKPGQPPKLLIFWASTRESGVPDRFSGSGFGTDFTLTISSLQAEDVAVYYCQQYFSYPLTFGQGTKVEIKR
notes: Full-length human IgG1/kappa

binding result [1]: binds | binding result [2]: binds
B3: mutant humanized FAP antibody huF19-LG-NGR (antibody, human IgG1, kappa, V domains shown)
VH: B1 VH with G56R
VL: B1 VL
notes: huF19-LG with G56R (Kabat) in HCDR2; also called optimized FAP antibody
